Assay results from the nanobody polyreactivity screen of Harvey et al. (2022).

Assay: yeast display, Sf9 membrane polyspecificity reagent, FACS + sequencing; frameworks hold sequencing errors
Summary of the method: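 Nanobodies came from a synthetic yeast display library in Saccharomyces cerevisiae BJ5465, induced with galactose for 36–48 hours and stained for 1 hour at 4 °C with 10% biotinylated, detergent-solubilized Sf9 membrane reagent. Cells were enriched on streptavidin microbeads and then FACS-sorted, with low and high (top ~1%) gates set on anti-HA fluorescence for expression and streptavidin fluorescence for reagent binding. Each polyreactivity label reflects the gate a clone came from. Genes were amplified by colony PCR, sequenced by MiSeq 2 × 250 and filtered by CDR length.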

Row | Sequence | polyreactivity (PSR sort gate)
1 | QVQLVESGGGLVQAGGSLRLSCAASGYTFGVYVMGWYREAPGKERELVAAISGSTYYADSVKGRFTISRDNAKNTVYVQMNSLKPEDTAVYYCAAESYFFSPRTREKFDYWGQGTQVTVSS | low polyreactivity
2 | QVQLVESGGGLVQAGGSLRLSCAASGSIFRTYTMGWYRQAPGKEREFVAAISRSGGSTYYADSVKGRFTISRDNAKNTVYLQMNSLKPEDTAVYYCNARWGLGSYGYWGQGTQVTVSS | high polyreactivity
3 | QVQLVESGGGLVQAGGSLRLSCAASGSTFTFNAMGWYRQAPGKERELVAVISSGGSTYYADSVKGRFTISRDNAKNTVYLQMNSLKPEDTAVYYCNKVYGYFGQYYLRYNYWGQGTQVTVSS | low polyreactivity
4 | QVQRVESGGGLVQAGGRLRISCAASGRTFRGNDMGWYRQAPGKERELVPTITRNGGSTRYADSVKGRFTISRDNAKNTVYLQMNSLQPEDTAVYYCAAREKYTPALEVEYWGQGTQVTVSS | high polyreactivity
5 | QFQLVESGGGLDQAGGSLRLSCAASGLIFYNYDMGWYRQAPGKERELVAAITLDGGITYYADSVKGRFTISRDNAKNTVYLQLNSLKPEDTAVYYCNRQYRLYGGYPSNLYEYWGQGTQVTVSS | high polyreactivity
6 | QVQLVESGGGLVQAGGSLRLSCAASGSIFGEYTMGWYRQAPGKERELVAAISWNGGITYYADSVKGRFTISRDNAKNTVYLQMNSLKPEDTAVYYCAAETYPWSLFTYYSWGQGSQVTVSS | low polyreactivity
7 | QVQLVESGGGLVQAGGILRLSCSASGRTLPAYVMGWYRQAPGKERELVAAITSGGGGTYFADSVKGRFTISRDNAKNTVYLQMNSMKPEDTAVYYCATTGNFFHYVYDFDYYYWGQGTQVTLSS | low polyreactivity
8 | QVQLVESGGGLVQAGGSLRLICAASGRISKRYTMGWYRQAPGKERELVAAINSSTSKSYADSVKGRFTISRDNAKNTVYLQMNSLKPEDTAVYYCNARYNYSYDYNYWGQGTQVTVSS | low polyreactivity
9 | QVQLVESGGGLVQAGGSLRLSCAASGSTFYYYAMGWYSQAPGKERDLVAVISWGGGSTYYADSVKGRFTISRDNAKNTVYLQMNSLKPEDTAVYYCAAVYDAYQTTDEYDYWGQGTQVTVSS | low polyreactivity
10 | QVQLVESGGGLVQAGGSLRLSCAASGRIFAENAMGWYRQAPGKERELVAAITDGGGSTYYADSVKGRFTISRDNAKNTVYLQMNSLKPEDTAVYYCNAYRYHLGVDFDYWGQGTQVTVSS | low polyreactivity
11 | QVQLVESCGGLVQAGASLRLSCAASGSTFKYYTMGWYIQSPGKERELVAAISFSGARTYYADSVKGRFTISRDNAKNNVYLQMNSLKPEDTAVYYCAKRATWYTVPREGYWGQGTLVTVSS | high polyreactivity
12 | QVQLVESGGGLVQAGGSLRLSCAASGSTFKYYPMGWYRQAPGKERELVAAITSTGSTNYADSVKGRFTISRDNAKNTVYLQMNSRKPEDTAVYYCAKKYFYSTYYSWGHGTQVTVSS | low polyreactivity
13 | QVQLVESGGGLVQAGGSLRLSCAASGYIFKHYAMGWYIQAPGKERELVAAITSGGRTNYADSVKGRFTISRDNAKNTVFLQMNSLIPEDTAVYYCAARRYRYFDGTVPLDYWGQGTLVTVSS | high polyreactivity
14 | QVQLVESGGGLGQAGGSLRLSCAASGSIFERNAMGWYRQAPGKERELVAAISSSGVSTYYADSVKGRFTISRDNAKNTVYLQMNSLKPEDTAVYYCNAVWRLRVRYGYWGQGTQVTVSS | high polyreactivity
15 | QVQHVESGGGLVQAGGSLRLSSAASGRIFPINAMGWYRQAPGKERELVAAISYSGGSTYYADSVKGRFTISRDNAKNTVYLQMNSLKPEDTAVFYCNARYPYSYYHRYYYWGQGTQVTVSS | high polyreactivity
16 | QVQLVESGGGLVQAGGSLRLSCAASGIFFLYMGWYRQAPGKERELVAAISDSGGTTYYADSVKGRFTISRDNAKNTVYLQMNSLKPEDTAVYYCAAEIENLNWFYWDYLEYDYWGQGTQVTVSS | low polyreactivity
17 | QVHLVESGGGLGQAGGSLRLSGAASGFIFGDYAMGWYRQAPGKERELVADINWTGGSTYYADSVKGRFTISRDNANNTVYLQMKSLKPEDTEVYYCDKDDYAFLITWVDYWGQGTQVTVSS | low polyreactivity
